Entries after “also recorded” stand apart in the source; their conditions may differ. Structures can show the parent of a compound that is named as a salt. Bridges are numbered along the chain shown (N, C = ends). Where no end group is shown, it is not given here.
Key:
thrombin [1] = biological target: T1, thrombin (Homo sapiens, UniProt P00734); assay: Thrombin inhibition testing: clotting activity of 10 IU/ml thrombin towards fibrinogen in the presence of the additive; assay type: biochemical; details: for inhibition of thrombin activity: 0.5 mM additive; for inhibition of thrombin activity / reduction/inhibition of thrombin activity: 10 IU/ml thrombin
T1 construct: yields the active alpha thrombin molecule which is a 295 amino acid polypeptide (human) composed of a heavy and light chain
Protocol: (§1) Thrombin activity was assessed by clotting time measurements using STart4 Coagulation Instrument (DIAGNOSTICA STAGO™, Asnieres sur Seine, France). The assay is a modification of the European Pharmacopoeia Assay procedure, 1997, 0903, p. 858. Briefly, a calibration curve was prepared by mixing thrombin standard with a fibrinogen solution of 0.1% fibrinogen content (Enzyme Research Laboratories, Ind., USA). Thrombin concentration in the different tested samples was then calculated from the calibration curve by their clotting time (the concentration was extrapolated from the calibration curve).
For inhibition testing, the clotting activity of 10 IU/ml thrombin was measured in the presence or absence of peptides.
The assay was carried out as described in Example 1.

thrombin [2] = biological target: T1, thrombin; assay: Thrombin stability testing: remaining clotting activity of 1000 IU/ml liquid thrombin after storage at 37° C.; assay type: biochemical; details: for maintaining thrombin activity compared with 0.5 mM gamma loop peptide (in words): 3% (w/v) arginine; for stabilization of thrombin activity (in words): 0.5 mM peptide, 1000 IU/ml thrombin, 37° C., 0, 3 and 7 days
Protocol: Aqueous liquid thrombin, in its purified and concentrated form 1000 international units IU/ml may undergo autolysis at room temperature causing a significant loss of activity e.g. towards a heterologous substrate. E.g. thrombin activity towards a heterologous substrate is reduced when a liquid thrombin formulation is incubated at room temperature for prolonged periods of time (e.g. 72 to 144 hours), inter alia, due to autolytic degradation. The decrease of thrombin activity towards a heterologous substrate in aqueous liquid solution can be assessed by measuring thrombin activity after prolonged periods of time and under permissive temperature (e.g. 37° C.). In the following experiments, the effect of a peptide on the stability of thrombin was studied under different conditions.
Aqueous liquid purified and concentrated thrombin (1000 IU/ml; equivalent to about 10 μM) was aliquoted and placed in a 37° C. incubator for 3 days (72 hours), 7 days (168 hours) and 14 days (336 hours). Prior to incubation, thrombin samples were spiked with indicated amounts of different tested peptides or with a control thrombin inhibitor: benzamidine or arginine *HCl (“arginine”). Specific peptides, their concentrations, and thrombin inhibitors used are indicated in each Example. Following the incubation period, the samples were frozen at −80° C. until testing the thrombin activity. Just before thrombin activity assay testing, all the samples were thawed and 100-fold diluted into a dilution buffer (0.4% tri-sodium citrate di-hydrate, 0.9% sodium chloride and 1% BSA, pH=7.5) to bring the thrombin concentration in the sample to that within the specifications of the assay (4-10 IU/ml) and to dilute the tested peptides in the sample to a negligible concentration.
as §1
For stability testing of 1000IU/ml thrombin following storage with or without peptides, testing was carried out as described above. Dilutions (1:100) were carried out before measuring the activity.
All of these peptides (“mutant gamma loop peptides” identified in Example 3, random peptides, thrombin derived peptides, and “gamma loop binding peptides” mentioned above) were tested for their ability to stabilize thrombin activity at a concentration of 0.5 mM as described in Example 2.

thrombin [3] = biological target: T1, thrombin; assay: Peptide microarray binding with fluorescently labelled thrombin; details: for Binding intensity of thrombin (100 μg/ml): DYLIGHT 650-Thrombin; for binding to thrombin (in words): fluorescent thrombin
Protocol: A screen was carried out to identify gamma loop mutants that may show improved binding to thrombin. This was carried out with fluorescent thrombin on an array of gamma loop peptide mutants. Three such cyclized peptides with the highest binding efficiency were tested for their capacity to stabilize thrombin without compromising thrombin activity towards fibrinogen (see Example 4 below).
A library of 1,676 15-meric peptides spanning the sequences of proteins interacting with the gamma loop of thrombin such as thrombin itself, anti-thrombin III (ATIII), thrombomodulin, heparin cofactor II, bovine pancreatic trypsin inhibitor (BPTI), and hirudin, and modifications of the thrombin gamma loop sequence were generated. Peptides were synthesized using SPOT synthesis (Wenschuh H, et al. (2000). Coherent membrane supports for parallel microsynthesis and screening of bioactive peptides. Biopolymers 55:188-206) and were chemoselectively immobilized onto functionalized glass slides as described (Panse S, et al. (2004) Profiling of generic anti-phosphopeptide antibodies and kinases with peptide microarrays using radioactive and fluorescence-based assays. Mol Divers 8:291-299.2.). Each peptide was printed in triplicates onto the microarray. For binding studies, 100 μg of purified thrombin (Omrix biopharmaceuticals) were directly labeled with DYLIGHT® 650 Microscale Antibody Labeling Kits, THERMO SCIENTIFIC™ (#84536) and diluted in blocking buffer SUPERBLOKTM T20 (TBS) Blocking Buffer, THERMO SCIENTIFICTM (#37536). […] cyclic gamma-loop derived peptide for one hour at 30° C. in a HS4800™ microarray processing station (Tecan) (Masch A, et al., (2010) Antibody signatures defined by high-content peptide microarray analysis. Methods Mol Biol 669:161-172).
(§2) Microarrays were washed with 0.1% TWEEN®20 in 1× TBS followed by 0.05% TWEEN®20 in 0.1× SSC and dried in a stream of nitrogen. Each microarray was scanned using GENEPIX® Autoloader 4200AL (Molecular Devices, Pixel size: 10 μm). Signal intensities were evaluated using spot recognition software GENEPIX® Pro 7.0 analysis software (Molecular Devices). For each peptide, the mean signal intensity of the three triplicates was extracted. Further evaluation and representation of results was performed using the statistical computing and graphics software R (Version 2.11.1, www.r-project.org).
(§3) One array included peptides based on the thrombin sequence. Any peptide isolated from this library may reflect possible regions in the thrombin protein that may interact with the gamma loop. […] The fluorescence for the strongest binding candidates (hits) was quantified on an arbitrary scale of 0-65535 (2^16). Thrombin activity was assesed as described in Example 1.

gamma loop of thrombin = biological target: T2, gamma loop of thrombin (Homo sapiens, UniProt P00734); assay: Peptide microarray binding screen with fluorescent gamma loop peptide; details: scale 0-65535
T2 construct: Fluorescein-labeled cyclic gamma-loop derived peptide; made in house; host or cells: chemical synthesis
Protocol: Based on the results disclosed in Example 2, the gamma loop peptide was used as a bait to find additional peptides which may positively affect the stability of thrombin. For this purpose, a binding screen was carried out using a fluorescent gamma loop peptide incubated with several peptide arrays.
A library of 1,676 15-meric peptides spanning the sequences of proteins interacting with the gamma loop of thrombin such as thrombin itself, anti-thrombin III (ATIII), thrombomodulin, heparin cofactor II, bovine pancreatic trypsin inhibitor (BPTI), and hirudin, and modifications of the thrombin gamma loop sequence were generated. Peptides were synthesized using SPOT synthesis (Wenschuh H, et al. (2000). Coherent membrane supports for parallel microsynthesis and screening of bioactive peptides. Biopolymers 55:188-206) and were chemoselectively immobilized onto functionalized glass slides as described (Panse S, et al. (2004) Profiling of generic anti-phosphopeptide antibodies and kinases with peptide microarrays using radioactive and fluorescence-based assays. Mol Divers 8:291-299.2.). Each peptide was printed in triplicates onto the microarray. For binding studies, 100 μg of purified thrombin (Omrix biopharmaceuticals) were directly labeled with DYLIGHT® 650 Microscale Antibody Labeling Kits, THERMO SCIENTIFIC™ (#84536) and diluted in blocking buffer SUPERBLOKTM T20 (TBS) Blocking Buffer, THERMO SCIENTIFICTM (#37536). The microarrays were incubated with 10 μg/ml DYLIGHT® 650-Thrombin or a Fluorescein-labeled cyclic gamma-loop derived peptide for one hour at 30° C. in a HS4800™ microarray processing station (Tecan) (Masch A, et al., (2010) Antibody signatures defined by high-content peptide microarray analysis. Methods Mol Biol 669:161-172).
as §2, §3

stabilization of thrombin activity (in words) (thrombin [2]) | Binding intensity of thrombin (100 μg/ml) (thrombin [3]) | Binding intensity of gamma loop (gamma loop of thrombin) [arbitrary units] | Molecule | other results
 |  |  | N=C(N)c1ccccc1 [Benzamidine] | inhibition of thrombin activity (thrombin [1]): 20%
 |  |  | N=C(N)NCCC[C@H](N)C(=O)O [arginine, arginine*HCl] | reduction/inhibition of thrombin activity (thrombin [1]; 0.5% (w/v) arginine): about 50%; reduction/inhibition of thrombin activity (thrombin [1]; 0.5% (w/v) arginine, listed as Arginine): 50%; reduction/inhibition of thrombin activity (thrombin [1]; 2% (w/v) arginine): > 95%; inhibition of thrombin (in words) (thrombin [1]; 3% (w/v) arginine, extrapolated from FIG. 2A): inhibit thrombin almost entirely; thrombin activity following storage (in words) (thrombin [2]; 0.5-5% (w/v) arginine, concentrated thrombin, up to 48 hours at 37° C.): maintained thrombin activity following storage; maintaining thrombin activity compared with 0.5 mM gamma loop peptide (in words) (thrombin [2]; 72 hours at 37° C.): not more effective; maintaining thrombin activity compared with 0.5 mM gamma loop peptide (in words) (thrombin [2]; 144 hours at 37° C.): only marginally so
inefficient |  |  | CKETWTANVLKC (disulfide 1-12 (inferred)) [SEQ ID NO:6, cyclized mutant gamma loop peptide] | 
inefficient |  |  | CKETWTAYVGKC (disulfide 1-12 (inferred)) [SEQ ID NO:5, cyclized mutant gamma loop peptide] | 
inefficient |  |  | CKNTWTANVGKC (disulfide 1-12 (inferred)) [SEQ ID NO:4, cyclized mutant gamma loop peptide] | 
 |  |  | KETWTANVGK [SEQ ID NO:1] | inhibition of thrombin activity (thrombin [1]): about 20%
 | 12353 | 26628 | LGNKKFVSGSRFVST [Rnd_inter_316] | inhibition of thrombin activity (in words) (thrombin [1]; any concentration tested): absolutely no inhibition; stabilization of thrombin activity (in words) (thrombin [2]; listed as SEQ ID NO:12): some stabilization effect; also recorded: capable of stabilizing liquid aqueous thrombin
some stabilization effect | 18537 | 40787 | NITRSGIESQLWRSR [Thr_031_CS, thrombin derived peptide, Cysteine replaced by Serine] | stabilization of thrombin activity (in words) (thrombin [2]; listed as SEQ ID NO:9): capable of stabilizing liquid aqueous thrombin
some stabilization effect | 15079 | 35117 | SGIESQLWRSRYPHK [Thr_032_CS, thrombin derived peptide, Cysteine replaced by Serine] | stabilization of thrombin activity (in words) (thrombin [2]; listed as SEQ ID NO:10): capable of stabilizing liquid aqueous thrombin
 | 23646 | 19539 | SHNQRFVTYLGSKLG [Rnd_inter_155] | stabilization of thrombin activity (in words) (thrombin [2]; listed as SEQ ID NO:13): some stabilization effect; also recorded: capable of stabilizing liquid aqueous thrombin

Molecule | stabilization of thrombin activity (in words) (thrombin [2]) | Binding intensity of thrombin (100 μg/ml) (thrombin [3]) | Binding intensity of gamma loop (gamma loop of thrombin) [arbitrary units] | other results
CKETWTANVGKC (disulfide 1-12 (inferred)) [SEQ ID NO:3, gamma loop peptide cyclized with terminal cysteine residues] | efficient stabilization of thrombin activity; also recorded: capable of stabilizing liquid aqueous thrombin |  |  | 
ISMLEKIYIHPRYNW [Thr_111, thrombin derived peptide] | increased thrombin degradation; also recorded: destabilization effect | 60199 | 32804 | binding to thrombin (in words) (thrombin [3]): strongest interaction with thrombin
RIRITDNMFSAGYKP [Thr_136_CS, thrombin derived peptide, Cysteine replaced by Serine] | least effective; also recorded: weaker stabilization effect | 5535 | 25278 | binding to thrombin (in words) (thrombin [3]): weakest fluorescent signal; stabilization of thrombin activity (in words) (thrombin [2]; listed as SEQ ID NO:11): capable of stabilizing liquid aqueous thrombin
WCYVAGKPGDFGYCD [Thr_069, thrombin derived peptide] | minimal effect on thrombin stability; also recorded: weaker stabilization effect | 3141 | 50553 | binding to thrombin (in words) (thrombin [3]): very weak binding to thrombin; stabilization of thrombin activity (in words) (thrombin [2]; listed as SEQ ID NO:7): capable of stabilizing liquid aqueous thrombin
